Assay [1] addresses BDNF pro-peptide, Val66 (wild type; Val-pro-peptide) (UniProt P23560). The assay can be described thus: Surface plasmon resonance (BIAcore 2000). Conditions: pH 7.4; 20 °C; 0.15 M NaCl; HBS-EP: 0.01 M HEPES (pH 7.4). For Figure 2c the same buffer was adjusted to pH 6.5 or 7.0 with HCl. (In general: SPR reads the build-up and loss of mass on a sensor chip optically.)
In assay [2] the target is BDNF pro-peptide, Met66 (Val66Met polymorphism; Met-pro-peptide) V66M (UniProt P23560). The assay can be described thus: Surface plasmon resonance (BIAcore 2000). Particulars: pH 7.4; 20 °C; 0.15 M NaCl; HBS-EP: 0.01 M HEPES (pH 7.4). For Figure 2c the same buffer was adjusted to pH 6.5 or 7.0 with HCl.
Assay [3] addresses T1, recombinant BDNF pro-peptide with the Met substitution at position 66 (Val66Met) (human, UniProt P23560 19-128, Val66Met).
T1 construct: BDNF pro-peptide, residues 19-128 of human precursor BDNF, with the common polymorphism Val66Met; Vector pET-19b; also called Met-BDNF pro-peptide; Met-pro-peptide; source: E. coli BL21 (DE3) pLysS, purified by liquid chromatography
T1 sequence (looked up): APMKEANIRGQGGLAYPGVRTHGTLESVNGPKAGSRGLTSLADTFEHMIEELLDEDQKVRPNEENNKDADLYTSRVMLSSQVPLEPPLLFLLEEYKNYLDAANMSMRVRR
The assay can be described thus: SPR; BIAcore 2000; BDNF pro-peptide (Val or Met) amine-coupled to a CM5 chip at about 2000 RU; neurotrophins and other proteins flowed over; 20 °C, 20 µL/min; HBS-EP (0.01 M HEPES pH 7.4, 0.15 M NaCl, 3 mM EDTA, 0.005% Surfactant P20). Particulars: both partners purified.

In assay [4] the target is T2, recombinant wild-type BDNF pro-peptide (Val at position 66) (human, UniProt P23560 19-128).
T2 construct: BDNF pro-peptide, residues 19-128 of human precursor BDNF; Vector pET-19b; also called Val-BDNF pro-peptide; Val-pro-peptide; source: E. coli BL21 (DE3) pLysS, purified by liquid chromatography
T2 sequence (looked up): T1 sequence (looked up) with M48V
The description is as above. Particulars: both partners purified.

Assay [5] deals with T3, recombinant wild-type BDNF pro-peptide (Val at position 66) (human, UniProt P23560 19-128).
T3 chain: T1 sequence (looked up) with M48V
The assay can be described thus: SPR.

Changes are numbered by the printed parent chain.

In assay [1], “Brain-derived neurotrophic factor (mature BDNF)” had a ka of 378000 M⁻¹ s⁻¹ and a kd of 0.0159 s⁻¹. In assay [2], this molecule came in with a ka of 36300 M⁻¹ s⁻¹ and a kd of 0.000444 s⁻¹.

B1: brain-derived neurotrophic factor (BDNF), recombinant human (ligand)
chain: HSDPARRGELSVCDSISEWVTAADKKTAVDMSGGTVTVLEKVPVSKGQLKQYFYETKCNPMGYTKEGCRGIDKRHWNSQCRTTQSYVRALTMDSKKRIGWRFIRIDTSCVCTLTIKRGR
modifications: mature BDNF; non-covalent homodimer, three intrachain disulfides per chain; a recombinant N-terminal Met is not stated
The Kd is the equilibrium constant for the complex coming apart. The koff is the first-order rate constant of dissociation. The kon is a measure of how fast the partners come together. On to B1, for which, in assay [3], the Kd turned out to be 12.2 nM, the koff worked out at 0.000444 s⁻¹ and the kon amounted to 36300 M⁻¹ s⁻¹. Besides, in assay [4], the Kd was 42.1 nM, the dissociation rate constant (koff) was found to be 0.0159 s⁻¹ and the kon turned out to be 378000 M⁻¹ s⁻¹.

B2: recombinant human neurotrophin-4 (NT-4) (ligand)
chain: GVSETAPASRRGELAVCDAVSGWVTDRRTAVDLRGREVEVLGEVPAAGGSPLRQYFFETRCKADNAEEGGPGAGGGGCRGVDRRHWVSECKAKQSYVRALTADAQGRVGWRWIRIDTACVCTLLSRTGRA
Turning to B2, the Kd in assay [5] amounted to 230 nM.

For the origin of these results see paper PMC5454954, “BDNF Binds Its Pro-Peptide with High Affinity and the Common Val66Met Polymorphism Attenuates the Interaction” (International Journal of Molecular Sciences, 2017).
